In article PMC13397619 one finds enrichment data, which are given here for 25 variants.

First the molecules themselves.
B1: NLV2 TCR alpha chain (CDR3α only) (parent)
chain: AGPMKTSYDKVI

In one assay the parent is B1. Briefly: T-Switch: Jurkat TCRβ−/− cells expressing a CDR3 saturation-mutagenesis library, stained with two peptide-HLA-A*02:01 tetramers (original and novel peptide) plus anti-CD3, FACS-sorted into four gates, gDNA sequenced. The conditions noted are these: with both tetramers (double-negative gate, binds neither): HLA-A*02:01 with … and with …, tetramers 1 µg/mL, 30 min on ice, SP, DP and SW gates expanded about 10 days between rounds ('two to three rounds of selection' in the Methods), gate DN: OPPOSITE: higher = more of the variant in the gate that binds neither peptide = LESS binding (or no expression; inferred). Fold enrichment of the CDR3 variant in one FACS gate of a two-tetram, unresolved parent, parent is a CDR3 fragment, scale: fold enrichment, numbering: sequential-on-construct, sequence starts at 1.
[…] (CDR3 as printed); D9Q derived by comparing it with the table's wild-type CDR3 AGPMKTSYDKVI: the enrichment amounted to 0.673.
Same read-out and setting: under […] (CDR3 as printed); A1I derived by comparing it with the table's wild-type CDR3 AGPMKTSYDKVI stands 0.798; under […] (CDR3 as printed); V11T derived by comparing it with the table's wild-type CDR3 AGPMKTSYDKVI, 1.12; under […] (CDR3 as printed); G2T derived by comparing it with the table's wild-type CDR3 AGPMKTSYDKVI, 0.533.
[…] (CDR3 as printed); V11R derived by comparing it with the table's wild-type CDR3 AGPMKTSYDKVI: the enrichment worked out at 1.26.
On the same count and under the same terms, under […] (CDR3 as printed); M4Y derived by comparing it with the table's wild-type CDR3 AGPMKTSYDKVI stands 1.15; under […] (CDR3 as printed); T6V derived by comparing it with the table's wild-type CDR3 AGPMKTSYDKVI, 0.56; under […] (CDR3 as printed); K10P derived by comparing it with the table's wild-type CDR3 AGPMKTSYDKVI, 0.876.
Same read-out and setting: as for […] (CDR3 as printed); Y8T derived by comparing it with the table's wild-type CDR3 AGPMKTSYDKVI, the figure is 1.15; as for […] (CDR3 as printed); G2F derived by comparing it with the table's wild-type CDR3 AGPMKTSYDKVI, 0.804; as for […] (CDR3 as printed); K10L derived by comparing it with the table's wild-type CDR3 AGPMKTSYDKVI, 1.05.
Take […] (CDR3 as printed); A1F derived by comparing it with the table's wild-type CDR3 AGPMKTSYDKVI: the enrichment is 0.884.
In the case of […] (CDR3 as printed); V11H derived by comparing it with the table's wild-type CDR3 AGPMKTSYDKVI, the enrichment turned out to be 0.891.
Still for that read-out and setting: as for […] (CDR3 as printed); M4V derived by comparing it with the table's wild-type CDR3 AGPMKTSYDKVI, the figure is 0.322.
Still for that read-out and setting: as for […] (CDR3 as printed); D9S derived by comparing it with the table's wild-type CDR3 AGPMKTSYDKVI, the figure is 1.04.
Turning to […] (CDR3 as printed); S7L derived by comparing it with the table's wild-type CDR3 AGPMKTSYDKVI, the enrichment came to 1.06.
Take […] (CDR3 as printed); K10G derived by comparing it with the table's wild-type CDR3 AGPMKTSYDKVI: the enrichment is 1.
On the same count and under the same terms, as for […] (CDR3 as printed); K5T derived by comparing it with the table's wild-type CDR3 AGPMKTSYDKVI, the figure is 0.493; as for […] (CDR3 as printed); Y8E derived by comparing it with the table's wild-type CDR3 AGPMKTSYDKVI, 0.485.
Still for that read-out and setting: under […] (CDR3 as printed); K10V derived by comparing it with the table's wild-type CDR3 AGPMKTSYDKVI stands 1.38; under […] (CDR3 as printed); S7V derived by comparing it with the table's wild-type CDR3 AGPMKTSYDKVI, 0.928; under […] (CDR3 as printed); I12M derived by comparing it with the table's wild-type CDR3 AGPMKTSYDKVI, 0.63.
Turning to […] (CDR3 as printed); P3C derived by comparing it with the table's wild-type CDR3 AGPMKTSYDKVI, the enrichment is 0.884.
For […] (CDR3 as printed); P3W derived by comparing it with the table's wild-type CDR3 AGPMKTSYDKVI, the enrichment turned out to be 0.887.
On the same count and under the same terms, under […] (CDR3 as printed); K5I derived by comparing it with the table's wild-type CDR3 AGPMKTSYDKVI stands 1.56.

Staying with this assay, now noted: with both tetramers (double-positive gate): HLA-A*02:01 with … and with …, tetramers 1 µg/mL, 30 min on ice, SP, DP and SW gates expanded about 10 days between rounds ('two to three rounds of selection' in the Methods), gate DP: higher = more of the variant in the gate that binds both peptides. Fold enrichment of the CDR3 variant in one FACS gate of a two-tetramer stain. SP/DP/SW gates were expanded and re-sorted bef, unresolved parent, parent is a CDR3 fragment, scale: fold enrichment, numbering: sequential-on-construct, sequence starts at 1.
Turning to […] (CDR3 as printed); D9Q derived by comparing it with the table's wild-type CDR3 AGPMKTSYDKVI, the enrichment is 0.
The same measure, in the same setting: under […] (CDR3 as printed); A1I derived by comparing it with the table's wild-type CDR3 AGPMKTSYDKVI stands 0; under […] (CDR3 as printed); V11T derived by comparing it with the table's wild-type CDR3 AGPMKTSYDKVI, 0.
Regarding […] (CDR3 as printed); G2T derived by comparing it with the table's wild-type CDR3 AGPMKTSYDKVI, the enrichment is 0.
Take […] (CDR3 as printed); V11R derived by comparing it with the table's wild-type CDR3 AGPMKTSYDKVI: the enrichment was 0.
Same read-out and setting: under […] (CDR3 as printed); M4Y derived by comparing it with the table's wild-type CDR3 AGPMKTSYDKVI stands 0; under […] (CDR3 as printed); T6V derived by comparing it with the table's wild-type CDR3 AGPMKTSYDKVI, 0.
In the case of […] (CDR3 as printed); K10P derived by comparing it with the table's wild-type CDR3 AGPMKTSYDKVI, the enrichment stood at 0.
The same measure, in the same setting: as for […] (CDR3 as printed); Y8T derived by comparing it with the table's wild-type CDR3 AGPMKTSYDKVI, the figure is 0; as for […] (CDR3 as printed); G2F derived by comparing it with the table's wild-type CDR3 AGPMKTSYDKVI, 0.
Same read-out and setting: as for […] (CDR3 as printed); K10L derived by comparing it with the table's wild-type CDR3 AGPMKTSYDKVI, the figure is 0.
The same measure, in the same setting: as for […] (CDR3 as printed); A1F derived by comparing it with the table's wild-type CDR3 AGPMKTSYDKVI, the figure is 0; as for […] (CDR3 as printed); V11H derived by comparing it with the table's wild-type CDR3 AGPMKTSYDKVI, 0; as for […] (CDR3 as printed); M4V derived by comparing it with the table's wild-type CDR3 AGPMKTSYDKVI, 0.
On to […] (CDR3 as printed); D9S derived by comparing it with the table's wild-type CDR3 AGPMKTSYDKVI, for which the enrichment is 0.
For the variant […] (CDR3 as printed); S7L derived by comparing it with the table's wild-type CDR3 AGPMKTSYDKVI, the enrichment was 0.
Same read-out and setting: under […] (CDR3 as printed); K10G derived by comparing it with the table's wild-type CDR3 AGPMKTSYDKVI stands 0; under […] (CDR3 as printed); K5T derived by comparing it with the table's wild-type CDR3 AGPMKTSYDKVI, 0.931.
Same read-out and setting: under […] (CDR3 as printed); Y8E derived by comparing it with the table's wild-type CDR3 AGPMKTSYDKVI stands 3.54; under […] (CDR3 as printed); K10V derived by comparing it with the table's wild-type CDR3 AGPMKTSYDKVI, 0.
On to […] (CDR3 as printed); S7V derived by comparing it with the table's wild-type CDR3 AGPMKTSYDKVI, for which the enrichment came to 0.
On the same count and under the same terms, under […] (CDR3 as printed); I12M derived by comparing it with the table's wild-type CDR3 AGPMKTSYDKVI stands 0.
On the same count and under the same terms, as for […] (CDR3 as printed); P3C derived by comparing it with the table's wild-type CDR3 AGPMKTSYDKVI, the figure is 0; as for […] (CDR3 as printed); P3W derived by comparing it with the table's wild-type CDR3 AGPMKTSYDKVI, 0.
Still for that read-out and setting: as for […] (CDR3 as printed); K5I derived by comparing it with the table's wild-type CDR3 AGPMKTSYDKVI, the figure is 0.
